These results are taken from the RNAGym collection of RNA variant scans (doi:10.7554/elife.80360).

B1: CPEB3 Ribozyme (parent)
chain: GGGGGCCACAGCAGAAGCGUUCACGUCGCGGCCCCUGUCAGAUUCUGGUGAAUCUGCGAAUUCUGCUGU

In this data set the parent is B1. The experiment in a line: self-cleavage, relative activity (ratio to wild type); higher = more cleavage; co-transcriptional.
As for C6U G41U, the self-cleavage amounted to 0.817.

Turning to G5U A16C, the self-cleavage was determined as 0.042.

With C6G G41C, the self-cleavage stood at 0.118.

In the case of G5C A13C, the self-cleavage stood at 0.17.

As for G5C A13U, the self-cleavage worked out at 0.172.

As for G5C A13G, the self-cleavage stood at 0.273.

For C6A C34A, the self-cleavage came to 0.153.

With C6A C34G, the self-cleavage was determined as 0.144.

In the case of G5C U55G, the self-cleavage stood at 0.115.

Turning to G5C U55C, the self-cleavage is 0.175.

Take G5C G58C: the self-cleavage worked out at 0.293.

Turning to G5C G58A, the self-cleavage was found to be 0.198.

As to G5U G58U, the self-cleavage came out at 0.37.

With G5U G58C, the self-cleavage is 0.2.

For G5U G58A, the self-cleavage was 0.172.

As for C6U A23G, the self-cleavage came out at 1.03.

On to G5A U62A, for which the self-cleavage was 0.492.

On to G5A U62G, for which the self-cleavage was found to be 0.447.

Consider G5U C54A, for which the self-cleavage is 0.104.

As to G5U C54G, the self-cleavage is 0.106.

With C6U G65A, the self-cleavage worked out at 0.849.

G5U A59C: the self-cleavage came to 0.181.

Take G5U A59G: the self-cleavage came to 0.139.

For the variant C6G C45G, the self-cleavage is 0.376.

As to C6A C39G, the self-cleavage is 0.372.

Take G5C U26C: the self-cleavage worked out at 0.109.

With C6G G37U, the self-cleavage is 0.0713.

Consider C6U G11A, for which the self-cleavage was 0.861.

G5C G48C: the self-cleavage came to 0.245.

In the case of G5C G48U, the self-cleavage was determined as 0.194.

Turning to G5C C29G, the self-cleavage worked out at 0.113.

Consider C6G C34A, for which the self-cleavage came to 0.0671.

For C6G G31C, the self-cleavage came out at 0.93.

Consider C6U C7U, for which the self-cleavage was found to be 0.86.

For G5C C66A, the self-cleavage amounted to 0.202.

With G5C C66G, the self-cleavage was determined as 0.186.

Consider C6G G28A, for which the self-cleavage was determined as 0.0625.

Consider C6G G28C, for which the self-cleavage turned out to be 0.0369.

In the case of C6G C22G, the self-cleavage stood at 0.0649.

As for C6G C22U, the self-cleavage worked out at 0.106.

Turning to C6G C22A, the self-cleavage is 0.0965.

For G5C C33U, the self-cleavage was determined as 0.468.

C6G A52U: the self-cleavage was found to be 0.254.

In the case of C6A U64C, the self-cleavage is 0.304.

C6G U20G: the self-cleavage was found to be 0.0342.

As for C6G U20C, the self-cleavage was determined as 0.0949.

As for C6A C12U, the self-cleavage stood at 0.581.

Turning to G5C C12G, the self-cleavage came out at 0.141.

In the case of G5C C12U, the self-cleavage is 0.256.

In the case of G5U C6G, the self-cleavage is 0.115.

On to G5U C6A, for which the self-cleavage came to 0.0825.

With C6G U43A, the self-cleavage came out at 0.172.

Turning to C6G U43G, the self-cleavage is 0.126.

For C6A C33A, the self-cleavage was determined as 0.127.

For the variant G5C U46G, the self-cleavage came to 0.235.

Turning to G5C U62C, the self-cleavage worked out at 0.141.

With G5C U62G, the self-cleavage stood at 0.179.

As for G5U U62C, the self-cleavage is 0.143.

G5U U62G: the self-cleavage was found to be 0.103.

With G5U C12G, the self-cleavage came to 0.1.

Regarding G5U C12A, the self-cleavage is 0.112.

Regarding G5U A13C, the self-cleavage worked out at 0.0841.

For the variant C6G G50C, the self-cleavage is 0.205.

For the variant G5U C39G, the self-cleavage amounted to 0.0932.

Take G5U C39A: the self-cleavage is 0.0897.

On to C6U C35G, for which the self-cleavage came to 0.2.

C6U C35U: the self-cleavage is 0.78.

For C6G A59U, the self-cleavage was 0.152.

Turning to G5C C57U, the self-cleavage was found to be 0.0922.

C6U G28U: the self-cleavage came out at 0.168.

As to C6A A8G, the self-cleavage amounted to 0.53.

As for G5U U61G, the self-cleavage was 0.0827.

Regarding G5U C24A, the self-cleavage was found to be 0.105.

In the case of C6G A42G, the self-cleavage was 0.324.

With C6G C54A, the self-cleavage stood at 0.162.

Consider C6G C57G, for which the self-cleavage is 0.0373.

As for G5U G14C, the self-cleavage turned out to be 0.0568.

C6G G11U: the self-cleavage came to 0.185.

In the case of C6G G11A, the self-cleavage came to 0.177.

Turning to C6U G48U, the self-cleavage was 1.

C6U C54U: the self-cleavage was found to be 1.03.

Consider C6U C32A, for which the self-cleavage was determined as 0.177.

Take G5C G25A: the self-cleavage worked out at 0.0822.

Regarding G5C G11A, the self-cleavage is 0.164.

Turning to G5C G11C, the self-cleavage amounted to 0.147.

Turning to C6A C54A, the self-cleavage amounted to 0.282.

Take C6A C54G: the self-cleavage was determined as 0.246.

Turning to C6G A10C, the self-cleavage worked out at 0.284.

As to G5C U69C, the self-cleavage was found to be 0.568.

C6A C63U: the self-cleavage came out at 0.505.

Consider C6A C63G, for which the self-cleavage was found to be 0.205.

As to C6G G14U, the self-cleavage is 0.121.

Regarding G5U A40U, the self-cleavage was 0.132.

In the case of G5U A40G, the self-cleavage amounted to 0.171.

In the case of G5U U55C, the self-cleavage stood at 0.147.

G5C G17U: the self-cleavage stood at 0.118.

Regarding C6A C9U, the self-cleavage was determined as 0.94.

With C6G U64C, the self-cleavage worked out at 0.166.

Turning to C6G U64G, the self-cleavage came out at 0.276.

Consider C6G U21A, for which the self-cleavage is 0.246.

For the variant G5U U67A, the self-cleavage stood at 0.743.

Consider G5U U67C, for which the self-cleavage stood at 0.628.

As to G5A U67A, the self-cleavage was 0.953.

On to G5C U49A, for which the self-cleavage worked out at 0.287.

On to G5C U49G, for which the self-cleavage worked out at 0.282.

As to G5C U49C, the self-cleavage was found to be 0.282.

Regarding G5A U20A, the self-cleavage turned out to be 0.0737.

With C6U C24G, the self-cleavage amounted to 0.345.

On to C6A A52C, for which the self-cleavage is 0.519.

Consider G5U C27A, for which the self-cleavage amounted to 0.116.

As to G5A U49C, the self-cleavage stood at 0.969.

As to G5A U49G, the self-cleavage worked out at 0.781.

C6U C33A: the self-cleavage is 0.257.

Take C6U C33G: the self-cleavage was 0.145.

With G5C A60G, the self-cleavage was 0.215.

Take G5C A60U: the self-cleavage stood at 0.164.

For the variant G5C A60C, the self-cleavage is 0.171.

For the variant C6A G19U, the self-cleavage is 0.131.

As for C6A A42U, the self-cleavage stood at 0.374.

G5C C45A: the self-cleavage was found to be 0.283.

Regarding C6U G19U, the self-cleavage worked out at 0.298.

For C6A G50A, the self-cleavage turned out to be 0.708.

For the variant G5C C35G, the self-cleavage amounted to 0.121.

On to G5C C35U, for which the self-cleavage worked out at 0.162.

On to C6U G25U, for which the self-cleavage stood at 0.18.

Regarding C6U G25A, the self-cleavage came out at 0.141.

Take G5A U46G: the self-cleavage stood at 0.925.

In the case of G5A U46A, the self-cleavage worked out at 0.907.

Regarding G5C A40U, the self-cleavage was 0.134.

As to C6A G11C, the self-cleavage amounted to 0.29.

Regarding C6A U26C, the self-cleavage turned out to be 0.333.

For the variant C6G C7G, the self-cleavage worked out at 0.0901.

For C6G C7A, the self-cleavage is 0.0493.

As to C6G G47U, the self-cleavage worked out at 0.463.

On to G5U C57U, for which the self-cleavage came out at 0.0743.

For the variant G5U C57G, the self-cleavage is 0.115.

Regarding C6G G48A, the self-cleavage came out at 0.493.

With C6U A10G, the self-cleavage was determined as 0.908.

As to C6U U36C, the self-cleavage was determined as 0.969.

Turning to C6G U67A, the self-cleavage turned out to be 0.325.

For G5C C7U, the self-cleavage is 0.156.

G5U C22U: the self-cleavage turned out to be 0.0607.

As to G5U C22A, the self-cleavage stood at 0.0283.

For the variant C6A C29G, the self-cleavage came to 0.179.

For the variant C6A G56U, the self-cleavage came to 0.44.

On to C6A G56A, for which the self-cleavage was 0.423.

On to C6G U26C, for which the self-cleavage was 0.249.

In the case of G5C C54A, the self-cleavage came out at 0.123.

Take G5U U69C: the self-cleavage was found to be 0.749.

G5U U69A: the self-cleavage came out at 0.503.

Take C6U G17U: the self-cleavage came to 0.209.

Consider G5C U43A, for which the self-cleavage was 0.183.

As for C6U C29A, the self-cleavage was found to be 0.493.

As to C6U C29U, the self-cleavage is 0.405.

Consider C6A U49A, for which the self-cleavage amounted to 0.641.

For the variant G5U A52C, the self-cleavage amounted to 0.176.

Consider G5U C35A, for which the self-cleavage was 0.0833.

For the variant G5U C35U, the self-cleavage was 0.0952.

Consider C6A G41U, for which the self-cleavage came to 0.225.

As to C6A G41C, the self-cleavage came to 0.192.

G5C U44G: the self-cleavage is 0.203.

G5C U44A: the self-cleavage was 0.24.

As to G5C C24A, the self-cleavage was 0.112.

Regarding G5U G37A, the self-cleavage is 0.11.

With C6G A23U, the self-cleavage came to 0.526.

On to C6G A23G, for which the self-cleavage was found to be 0.164.

In the case of G5U U43C, the self-cleavage worked out at 0.133.
